Source: US20210395318A1 (Molecular Partners, published 2021)

Columns and labels:
cynomolgus FAP = target: T1, cynomolgus FAP (cynomolgus); experiment: SPR (ProteOn XPR36), FAP immobilized on GLC chip, Protein #5 as analyte, PBST, 1:1 Langmuir
T1 chain: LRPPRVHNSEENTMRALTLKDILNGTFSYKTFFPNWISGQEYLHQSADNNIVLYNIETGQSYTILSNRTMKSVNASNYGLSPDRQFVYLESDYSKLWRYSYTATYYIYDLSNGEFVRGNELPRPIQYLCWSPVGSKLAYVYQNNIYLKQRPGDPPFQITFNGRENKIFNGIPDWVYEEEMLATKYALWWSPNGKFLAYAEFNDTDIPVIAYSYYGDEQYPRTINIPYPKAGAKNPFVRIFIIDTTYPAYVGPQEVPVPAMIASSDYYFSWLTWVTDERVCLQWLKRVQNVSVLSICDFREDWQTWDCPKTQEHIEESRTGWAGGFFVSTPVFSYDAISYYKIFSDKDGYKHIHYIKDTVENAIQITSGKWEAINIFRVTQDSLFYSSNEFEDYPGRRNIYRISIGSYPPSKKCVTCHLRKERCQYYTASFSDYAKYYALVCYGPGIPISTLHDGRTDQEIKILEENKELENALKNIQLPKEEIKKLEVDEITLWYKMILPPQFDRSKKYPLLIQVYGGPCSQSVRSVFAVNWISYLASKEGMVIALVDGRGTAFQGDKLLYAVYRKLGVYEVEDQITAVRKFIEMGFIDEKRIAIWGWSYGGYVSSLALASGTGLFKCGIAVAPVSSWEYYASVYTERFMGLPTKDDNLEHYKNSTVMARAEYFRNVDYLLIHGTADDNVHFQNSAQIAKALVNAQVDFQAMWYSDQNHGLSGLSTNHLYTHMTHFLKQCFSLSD
Experimental: (§1) All SPR measurements were performed using a ProteOn XPR36 instrument (BioRad) and a running buffer of PBS pH 7.4 containing 0.005% Tween 20® (PBST). The 1:1 Langmuir model was used for the fitting of SPR traces.
(§2) ProteOn setup for Protein #5 binding to FAP of different species. hFAP, cynomolgus FAP (cFAP) and mouse FAP (mFAP) were immobilized on a GLC chip (BioRad) in 10 mM Na Acetate buffer pH5.3 to a level of 1200 RU, 800 RU and 2000 RU, respectively. The interaction of FAP and Protein #5 was measured by applying Protein #5 in a serial dilution of […] and 3.13 nM with an association of 120 s and dissociation of 1800 s using a constant flow of 100 μl/min. The targets were regenerated using 10 mM glycine pH 2 and 124 mM H₃PO₄. The signals were double referenced against the PBST treated control lanes.

human FAP (recombinant) = target: T2, human FAP (recombinant) (human, UniProt Q12884 26-760); experiment: as above
T2 construct: also called hFAP; rhFAP
T2 sequence: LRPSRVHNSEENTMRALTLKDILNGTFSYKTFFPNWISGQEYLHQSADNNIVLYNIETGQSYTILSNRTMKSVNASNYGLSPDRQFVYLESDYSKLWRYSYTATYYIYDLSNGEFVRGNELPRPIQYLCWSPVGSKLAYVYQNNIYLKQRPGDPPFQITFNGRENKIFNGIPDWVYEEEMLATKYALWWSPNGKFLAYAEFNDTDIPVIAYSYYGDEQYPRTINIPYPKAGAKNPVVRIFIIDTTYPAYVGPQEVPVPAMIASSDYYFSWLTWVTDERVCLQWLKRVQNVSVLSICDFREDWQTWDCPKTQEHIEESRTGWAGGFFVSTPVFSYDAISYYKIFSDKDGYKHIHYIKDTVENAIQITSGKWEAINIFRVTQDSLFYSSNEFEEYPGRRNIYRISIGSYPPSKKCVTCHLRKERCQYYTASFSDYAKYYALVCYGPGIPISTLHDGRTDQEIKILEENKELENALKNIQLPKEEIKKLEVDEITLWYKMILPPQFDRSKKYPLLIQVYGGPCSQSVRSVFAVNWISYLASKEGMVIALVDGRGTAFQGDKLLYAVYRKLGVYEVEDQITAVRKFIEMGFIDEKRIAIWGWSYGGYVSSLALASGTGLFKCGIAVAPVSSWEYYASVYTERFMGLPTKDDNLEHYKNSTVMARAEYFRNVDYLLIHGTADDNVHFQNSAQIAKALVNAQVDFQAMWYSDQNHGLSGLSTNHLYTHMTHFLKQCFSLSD
Experimental: as §1, §2

[1] = target: T3, biotinylated human CD40 (Acro Biosystem) (human, UniProt P25942 21-193, biotinylated (sites not given)); experiment: SPR (ProteOn XPR36), biotinylated CD40 on NLC chip, Protein #5 as analyte, PBST, 1:1 Langmuir
T3 construct: Bought protein; also called Bio-hCD40; hCD40
Experimental: as §1
(§3) ProteOn setup for Protein #5 binding to CD40 of different species. CD40 proteins (Acro Biosystem) of different species (human, cynomolgus, mouse) were biotinylated with standard methods known in the art, resulting in bio-hCD40, bio-cCD40 and bio-mCD40 proteins. The bio-hCD40, bio-cCD40 and bio-mCD40 proteins were immobilized on an NLC chip (BioRad) to a level of respectively 300 RU, 250 RU and 300 RU. The interaction of Protein #5 with CD40 was measured by injecting Protein #5 in a serial dilution of 3, 1.5, 0.75, 0.38 and 0.19 nM with an association of 120 s and dissociation of 900 s using a constant flow of 100 μl/min. The measurement was repeated two or three times and the targets were regenerated between the individual measurements using 10 mM glycine pH 2 for 18 s at a flow of 100 μl/min. The signals were double referenced against the running buffer (PBST) treated control lanes.

[2] = target: T4, biotinylated cynomolgus CD40 (Acro Biosystem) (cynomolgus, UniProt G7PG38 21-193, biotinylated (sites not given)); experiment: as above
T4 construct: also called Bio-cCD40
Experimental: as §1, §3

T3 sequence (P25942 21-193 H80K/K81H limits assumed): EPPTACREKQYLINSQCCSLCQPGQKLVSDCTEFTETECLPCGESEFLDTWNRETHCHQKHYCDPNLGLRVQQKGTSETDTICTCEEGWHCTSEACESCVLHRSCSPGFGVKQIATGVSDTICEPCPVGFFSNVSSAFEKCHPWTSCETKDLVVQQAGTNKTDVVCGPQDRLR

B1: DARPin Protein #5 (designed binder)
chain: GSDLGKKLLEAARAGQDDEVRELLKAGADVNAKDYFSHTPLHLAARNGHLKIVEVLLKAGADVNAKDFAGKTPLHLAAADGHLEIVEVLLKAGADVNAQDIFGKTPADIAADAGHEDIAEVLQKAAGSPTPTPTTPTPTPTTPTPTPTGSDLGKKLLEAARAGQDDEVRILLAAGADVNAKDVLGWTPLHLAAFEGHLEIVEVLLKAGADVNAKDKKGWTPLQLAARTGHLEIVEVLLKAGADVNAKDHIGATPLHLAAWQGHPEIVEVLLKAGADVNAQDKSGKTPADLAADAGHEDIAEVLQKAAGSPTPTPTTPTPTPTTPTPTPTGSDLGKKLLQAARAGQLDEVRELLKAGADVNAKDTWGFTPLHIAAESGHLEIVEVLLKAGADVNAKDVQGRTPLHIAAHSGHLEIVEVLLKAGADVNAKDFRGWTPLHLAAWSGHLEIVEILLKAGADVNAQDKSGKTPADLAARAGHQDIAEVLQKAAGSPTPTPTTPTPTPTTPTPTPTGSDLGKKLLQAARAGQLDEVRELLKAGADVNAKDTWGFTPLHIAAESGHLEIVEVLLKAGADVNAKDVQGRTPLHIAAHSGHLEIVEVLLKAGADVNAKDFRGWTPLHLAAWSGHLEIVEILLKAGADVNAQDKSGKTPADLAARAGHQDIAEVLQKAA
notes: also called SMA136; Molecule No. 1
Kd (cynomolgus FAP): 0.339 nM
koff (cynomolgus FAP): 0.000146 s⁻¹
kon (cynomolgus FAP): 432000 M⁻¹ s⁻¹
Kd (human FAP (recombinant)): 0.307 nM
koff (human FAP (recombinant)): 0.000126 s⁻¹
kon (human FAP (recombinant)): 409000 M⁻¹ s⁻¹
Kd [1]: 0.103 nM
koff [1]: 0.00103 s⁻¹
kon [1]: 1.01e+07 M⁻¹ s⁻¹
Kd [2]: 0.101 nM
koff [2]: 0.000824 s⁻¹
kon [2]: 8.25e+06 M⁻¹ s⁻¹
